US20110288003A1 (INDIANA UNIVERSITY RESEARCH AND TECHNOLOGY, published 2011)
Like-named read-outs stand apart in the source and are kept apart here. Bridge positions count the residues as written; N and C are the ends. Ends that are not written are not given here. PLA = phenyl lactic acid

B1: [PLA6, D9, E16K20(lactam), D28]G(6-29) (peptide)
peptide: {PLA}-TSDYSKYLDERRAKDFVQWLMDT
modifications: lactam 10-14
B2: [PLA6, D9, E16, E24K28(lactam)]G(6~29) (peptide)
peptide: {PLA}-TSDYSKYLDERRAQDFVEWLMKT
modifications: lactam 18-22
B3: [PLA6, D9, K12E16(Lactam), D28]G(6-29) (peptide)
peptide: {PLA}-TSDYSKYLDERRAQDFVQWLMDT
modifications: lactam 6-10
B4: [A2E3, E16K20(Lactam), D28]G(1~29) (peptide)
peptide: HAEGTFTSEYSKYLDERRAKDFVQWLMDT-NH2
modifications: lactam 16-20; N-terminus assumed
SMILES: CSCC[C@H](NC(=O)[C@H](CC(C)C)NC(=O)[C@H](Cc1c[nH]c2ccccc12)NC(=O)[C@H](CCC(N)=O)NC(=O)[C@@H](NC(=O)[C@H](Cc1ccccc1)NC(=O)[C@H](CC(=O)O)NC(=O)[C@@H]1CCCCNC(=O)CC[C@H](NC(=O)[C@H](CC(=O)O)NC(=O)[C@H](CC(C)C)NC(=O)[C@H](Cc2ccc(O)cc2)NC(=O)[C@H](CCCCN)NC(=O)[C@H](CO)NC(=O)[C@H](Cc2ccc(O)cc2)NC(=O)[C@H](CCC(=O)O)NC(=O)[C@H](CO)NC(=O)[C@@H](NC(=O)[C@H](Cc2ccccc2)NC(=O)[C@@H](NC(=O)CNC(=O)[C@H](CCC(=O)O)NC(=O)[C@H](C)NC(=O)[C@@H](N)Cc2c[nH]cn2)[C@@H](C)O)[C@@H](C)O)C(=O)N[C@@H](CCCNC(=N)N)C(=O)N[C@@H](CCCNC(=N)N)C(=O)N[C@@H](C)C(=O)N1)C(C)C)C(=O)N[C@@H](CC(=O)O)C(=O)N[C@H](C(N)=O)[C@@H](C)O
B5: ANK2 (Bayer peptide) (peptide)
peptide: HSQGTFTSDYARYLDARRAREFIKWLVRGRG
B6: [PLA6, E9, E16K20(Lactam)] glucagon(6-39) (Table 13, peptide 6) (peptide)
peptide: TSEYSKYLDERRAKDFVQWLMNTGPSSGAPPPS
modifications: PLA (phenyl lactic acid, in place of Phe6 of glucagon) at the N-terminus before the printed letters; lactam between E16 and K20 (glucagon numbering)
B7: [PLA6, E9, K12E16(Lactam) glucagon(6-39) (Table 13, peptide 5) (peptide)
peptide: {PLA}-TSEYSKYLDERRAQDFVQWLMNTGPSSGAPPPS
modifications: lactam 6-10
B8: E9, K12, E16 glucagon(6-39) (Table 13, peptide 1) (peptide)
peptide: FTSEYSKYLDERRAQDFVQWLMNTGPSSGAPPPS
B9: E9, K12E16(lactam) glucagon(6-39) (Table 13, peptide 2) (peptide)
peptide: FTSEYSKYLDERRAQDFVQWLMNTGPSSGAPPPS
modifications: lactam 7-11
B10: E9, E16K20(lactam) glucagon(6-39) (Table 13, peptide 3) (peptide)
peptide: FTSEYSKYLDERRAKDFVQWLMNTGPSSGAPPPS
modifications: lactam 11-15
B11: D9, K12E16(Lactam) glucagon(6-39) (Table 13, peptide 4) (peptide)
peptide: FTSDYSKYLDERRAQDFVQWLMNTGPSSGAPPPS
modifications: lactam 7-11
B12: [E9, E16K20(lactam), D28]G(4~29) (peptide)
peptide: GTFTSEYSKYLDERRAKDFVQWLMDT-NH2
modifications: lactam 13-17; N-terminus assumed
SMILES: CSCC[C@H](NC(=O)[C@H](CC(C)C)NC(=O)[C@H](Cc1c[nH]c2ccccc12)NC(=O)[C@H](CCC(N)=O)NC(=O)[C@@H](NC(=O)[C@H](Cc1ccccc1)NC(=O)[C@H](CC(=O)O)NC(=O)[C@@H]1CCCCNC(=O)CC[C@H](NC(=O)[C@H](CC(=O)O)NC(=O)[C@H](CC(C)C)NC(=O)[C@H](Cc2ccc(O)cc2)NC(=O)[C@H](CCCCN)NC(=O)[C@H](CO)NC(=O)[C@H](Cc2ccc(O)cc2)NC(=O)[C@H](CCC(=O)O)NC(=O)[C@H](CO)NC(=O)[C@@H](NC(=O)[C@H](Cc2ccccc2)NC(=O)[C@@H](NC(=O)CN)[C@@H](C)O)[C@@H](C)O)C(=O)N[C@@H](CCCNC(=N)N)C(=O)N[C@@H](CCCNC(=N)N)C(=O)N[C@@H](C)C(=O)N1)C(C)C)C(=O)N[C@@H](CC(=O)O)C(=O)N[C@H](C(N)=O)[C@@H](C)O
B13: [A2E3, E16K20(Lactam), D28]G(2~29) (peptide)
peptide: AEGTFTSEYSKYLDERRAKDFVQWLMDT
modifications: lactam 15-19
B14: [PLA6, D9, E16, K20E24(Lactam), D28]G(6-29) (peptide)
peptide: {PLA}-TSDYSKYLDERRAKDFVEWLMDT
modifications: lactam 14-18

Experiments:
Experiment in all cases: cell-based or functional assay
glucagon receptor [1] = molecular target: T1, glucagon receptor (UniProt P47871 26-477, limits assumed)
T1 sequence (P47871 26-477 limits assumed): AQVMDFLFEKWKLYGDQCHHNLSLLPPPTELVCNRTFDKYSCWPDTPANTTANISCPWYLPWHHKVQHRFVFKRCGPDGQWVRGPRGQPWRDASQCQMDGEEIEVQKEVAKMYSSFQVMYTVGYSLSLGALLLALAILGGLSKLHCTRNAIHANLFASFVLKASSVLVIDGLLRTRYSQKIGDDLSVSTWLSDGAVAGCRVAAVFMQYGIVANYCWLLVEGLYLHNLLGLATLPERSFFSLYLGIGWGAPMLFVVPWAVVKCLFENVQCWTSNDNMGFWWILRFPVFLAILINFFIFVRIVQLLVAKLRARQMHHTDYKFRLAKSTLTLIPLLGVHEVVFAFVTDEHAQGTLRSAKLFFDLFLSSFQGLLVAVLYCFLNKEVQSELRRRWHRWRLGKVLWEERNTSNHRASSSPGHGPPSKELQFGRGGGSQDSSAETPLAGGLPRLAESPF

GLP-1 receptor [2] = molecular target: T2, GLP-1 receptor (UniProt P43220 24-463, limits assumed)
glucagon receptor [3] = molecular target: T1, glucagon receptor; remark: listed apart in the source
GLP-1 receptor [4] = molecular target: T2, GLP-1 receptor; remark: listed apart in the source
GLP-1 receptor [5] = molecular target: T2, GLP-1 receptor; remark: listed apart in the source
Target sequence in this assay (P43220 24-463 limits assumed): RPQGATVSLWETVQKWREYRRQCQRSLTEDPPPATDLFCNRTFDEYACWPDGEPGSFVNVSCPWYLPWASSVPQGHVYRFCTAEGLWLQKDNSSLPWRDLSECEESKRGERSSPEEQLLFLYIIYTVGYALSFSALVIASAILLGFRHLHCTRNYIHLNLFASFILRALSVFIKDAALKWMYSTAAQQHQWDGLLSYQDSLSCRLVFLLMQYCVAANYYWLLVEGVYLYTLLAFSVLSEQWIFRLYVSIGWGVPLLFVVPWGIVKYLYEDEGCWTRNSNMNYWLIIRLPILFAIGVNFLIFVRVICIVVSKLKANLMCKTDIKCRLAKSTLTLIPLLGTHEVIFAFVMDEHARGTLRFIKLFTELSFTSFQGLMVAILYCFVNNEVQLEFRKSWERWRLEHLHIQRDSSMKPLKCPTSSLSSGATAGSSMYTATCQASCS

glucagon receptor [6] = molecular target: T1, glucagon receptor; remark: listed apart in the source

Row | Binder | Glucagon IC50 (glucagon receptor [1]) [nM] | GLP-1 EC50 (GLP-1 receptor [4]) [nM] | Glu IC50 (glucagon receptor [6]) [nM] | also measured
1 | B1 | 10 to 30 | – | – | GLP-1 EC50 (GLP-1 receptor [2]): 4 nM; Glucagon IC50 (glucagon receptor [3]): 6 nM
2 | B2 | 22 | 289 | – | –
3 | B3 | 63 | 177 | – | –
4 | B4 | – | 0.2 | – | Glucagon IC50 (nM); PA = partial antagonist (glucagon receptor [1]): 130 nM
5 | B5 | – | 0.28 | – | –
6 | B6 | – | – | – | GLP-1 EC50 (GLP-1 receptor [2]): 20 nM
7 | B7 | – | – | 72 | GLP-1 EC50 (GLP-1 receptor [5]): 6 nM
8 | B8 | – | – | 762 | Glucagon IC50 (glucagon receptor [3]): 762 nM
9 | B9 | – | – | 2010 | GLP-1 EC50 (GLP-1 receptor [5]): 63 nM; GLP-1 EC50 (GLP-1 receptor [2]): 63 nM; Glucagon IC50 (glucagon receptor [3]): 2010 nM
10 | B10 | – | – | 42 | GLP-1 EC50 (GLP-1 receptor [5]): 36 nM; GLP-1 EC50 (GLP-1 receptor [2]): 36 nM; Glucagon IC50 (glucagon receptor [3]): 42 nM
11 | B11 | – | – | 828 | GLP-1 EC50 (GLP-1 receptor [5]): 119 nM
12 | B12 | 10 to 30 | 151 | – | –
13 | B13 | 63 | – | – | –
14 | B14 | 74 | 239 | – | –
